Tested on: MS2 coat protein
Test: apparent KD of MS2 coat protein; designed switch direction (-1 OFF switch, 1 ON switch): 1; higher = weaker reporter binding
Outline: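 Normalised cluster fluorescence was curve-fitted, and each design's median over clusters is its apparent KD. Before this, SNAP-549-labelled MS2 coat protein was titrated from 0.7 or 1.5 nM, doubling to 3 µM, over RNA switches transcribed on Illumina chips by stalled E. coli RNA polymerase. Titrations had no input, 200 uM small-molecule ligand, or an oligonucleotide input, and steps lasted 0.8–1.5 h (lowest) to 10–20 min (highest).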

[1] = input ligand: microRNA oligo, concentration not stated
[2] = Eterna round: R95, input ligand: microRNA oligo, concentration not stated
[3] = Eterna round: R95, input ligand: FMN 200 uM
[4] = Eterna round: R95, input ligand: none

Row | Sequence | apparent KD of MS2 coat protein (input ligand: FMN 200 uM) [nM] | apparent KD of MS2 coat protein [1] [nM] | apparent KD of MS2 coat protein (input ligand: none) [nM] | apparent KD of MS2 coat protein [2] [nM] | apparent KD of MS2 coat protein [3] [nM] | apparent KD of MS2 coat protein [4] [nM]
1 | GCAGGACAUGAGGAUCACCCAUGUCUCAAAUAUUGAGGAUAUGGACACGGUAUAUCCGAACCAGAAGGCAACCUGC [SS1 Teenbexe 20] (Eterna round: R96, puzzle: Same State 1) | 38.9 | 31.5 | 43.7 |  |  | 
2 | GCAGGACAUGAGGAUCACCCAUGUCUCAAAUAUUGAGGAUAUGGACACGGUAUAUCCGAACCAGAAGGCAACCUGC [SS1 Teenbexe 20] (puzzle: Same State 1) |  |  |  | 47.3 |  | 
3 | GCAGGACGAUAAUAUAUCUCACAUGAGGAUCACCCAUGUCGUGAGGAUAUGGAUCCUAAUUGGAUCCAGAAGGCAUGGUCCUGC [Fiskers NG3ss - 31] (Eterna round: R96, puzzle: Same State NG 3) | 18.5 | 14.2 | 20.7 |  |  | 
4 | GCAGGACGAUAAUAUAUCUUCACAUGAGGAUCACCCAUGUCUCAGGAUAUGGAUCCUAAUUGGAUCCAGAAGGGAGCGUCCUGC [Fiskers NG3ss - 33] (Eterna round: R96, puzzle: Same State NG 3) | 33.2 | 43.3 | 54.4 |  |  | 
5 | GCAGUACUAGCAGAGGAUAUGUCGGUAACGACAUGAGGAUCACCCAUGUGUACGAAAGUGCUCAGACAGAAGGCUGAGUACUGCU [Same State 2 - Hyphema v.1] (puzzle: Same State 2) |  |  |  | 58.4 | 17.8 | 78.4
6 | GCCAACUAAUGAGGAUAUGGCACCUUAUUGGUGCCAGAAGGCAUGUCAAUUGACAUGAGGAUCACCCAUGUAUUAUAGUUGGCG [salish99_SSNG1_r04_601] (Eterna round: R96, puzzle: Same State NG 1) |  | 438 |  |  |  | 
7 | GCCAACUCAUGAGGAUAUGGCACCUUAUUGGUGCCAGAAGGCAUGUCAAUUGACAUGAGGAUCACCCAUGUAUUAUAGUUGGCA [Fiskers NG1ss - 22] (Eterna round: R96, puzzle: Same State NG 1) | 62.5 | 267 | 489 |  |  | 
8 | GCCAUCGAGUGAGGAUAUGGCACCGAAACGGUGCCAGAAGGCAUGUCAAUUGACAUGAGGAUCACCCAUGUAUUAUCGAUGGCA [Mat - Same State NG 1 - JL mod - D87] (Eterna round: R96, puzzle: Same State NG 1) | 154 | 726 | 1690 |  |  | 
9 | GCCCAUAGUAUAUGGGUACAAGCUUUUUGACAUGAGGAUCACCCAUGUACUCGUCUUAUGUGCAGUCCGUAGACUGC [JL-shm-2.18 Brourd mod] (puzzle: Sensor for hsa-mir-208a) |  |  |  | 15.3 | 61.9 | 66.6
10 | GCCGCGUUUCGCGCCUACAUGAGGAUCACCCAUGUUUGUGGGCAGGAUAUCGUCCGCUCUGCGGGCGAGAAGGGCUGUUGUGGU [salish99_SSNG3_R04_026] (Eterna round: R96, puzzle: Same State NG 3) |  | 40.9 |  |  |  | 
11 | GCCGCGUUUCGCGCCUACAUGAGGAUCACCCAUGUUUGUUGGCAGGAUAUCGUCCGCUCUGCGGGCGAGAAGGGCUGUUGUGGU [salish99_SSNG3_R04_025] (Eterna round: R96, puzzle: Same State NG 3) | 38.4 | 18 | 25.4 |  |  | 
12 | GCCGGACCGGAAGGAUAUGUUCCCGGUGCAGCGGGAGACAUGAGGAUCACCCAUGUACUAUAACGACAGAAGGUCCAACCAGCG [Eternabot solution 21] (Eterna round: R96, puzzle: Same State NG 2) | 18.7 | 16.4 | 22.5 |  |  | 
13 | GCCGGCUGAUGAGGAUAUGGCACCUUAUUGGUGCCAGAAGGCAUGUCAAUUGACAUGAGGAUCACCCAUGUAUUAUAGUUGGCG [salish99_SSNG1_r04_604] (Eterna round: R96, puzzle: Same State NG 1) | 117 | 233 | 326 |  |  | 
14 | GCCGGCUGGUGAGGAUAUGGCACCUUAUUGGUGCCAGAAGGCAUGUCAAUUGACAUGAGGAUCACCCAUGUGUUGUCGUUGGCG [salish99_SSNG1_r04_609] (Eterna round: R96, puzzle: Same State NG 1) | 698 | 72.4 | 742 |  |  | 
15 | GCCGUAAUAACAUGAGGAUCACCCAUGUGCGCGAGAGUGGAUGAGGAUAUCGAUGGGUUUCCCGUCGAGAAGGCGUGGGUCGGC [JL SSNG3 3.98] (Eterna round: R96, puzzle: Same State NG 3) | 28 | 24.5 | 38.5 |  |  | 
16 | GCGAAGAGGUAAGGAUAUGCAUGGCGGAGACAUGAGGAUCACCCAUGUUGGAGACGAAAUCUAGGGUAGAAGGUACCAGGAAGC [AK SSNG2-V2-12] (Eterna round: R96, puzzle: Same State NG 2) | 61.9 | 52.6 | 72.1 |  |  | 
17 | GCGAGCGUACUUGCUACAUGAGGAUCACCCAUGUUUUAUGGACAGGAUAUGGUACCGUUUCGGUACCAGAAGGGUCCACAUGUA [JL SSNG3 3.84] (Eterna round: R96, puzzle: Same State NG 3) | 130 | 579 | 453 |  |  | 
18 | GCGAGUGCCACAGGAUAUUCGGCUGUUUCGCUCGAAGAAGGGUGCCGCAUGCAAUAAAGAAAACAUGAGGAUCACCCAUGUGAA [Uszavege] (Eterna round: R96, puzzle: Same State NG 1) | 527 | 217 | 418 |  |  | 
19 | GCGGAACGGGCCGACAUGAGGAUCACCCAUGUGCCCUCAUGUAAGGAUAUCGGGAAGAAGAAAACCGAGAAGGUACGGUGACGC [AK SSNG3-V2-30] (Eterna round: R96, puzzle: Same State NG 3) | 945 | 51.5 | 137 |  |  | 
20 | GCGGCGGCACGGCAGGAUAUGAUAUAACCUACAUGAGGAUCACCCAUGUCGGCGGGUUGCAAAAUUCAGAAGGGCCCUGUAGGCC [Inberere] (puzzle: Same State 2) |  |  |  | 34.4 | 21.8 | 37.2
21 | GCUACCAAAGAAGCCAACAUGAGGAUCACCCAUGUAUGUUGGUAGGAUAUCGUUUGCAAAGCGAACGAGAAGGGCUAAGGUAGC [Mat - Same State NG 3 - JL Mod - D85] (Eterna round: R96, puzzle: Same State NG 3) | 151 | 88.1 | 101 |  |  | 
22 | GCUAGAAAUAAAGCCAACAUGAGGAUCACCCAUGUAUGUUGGCAGGAUAUCGUAUGCAAAGCAUACGAGAAGGGCUAAACUAGC [Mat - Same State NG 3 - JL Mod - D6] (Eterna round: R96, puzzle: Same State NG 3) | 129 | 149 | 201 |  |  | 
23 | GCUAGAAAUAAAGCCAACAUGAGGAUCACCCAUGUAUGUUGGUAGGAUAUCGUUUGCAAAGCAAACGAGAAGGGCCAAACUAGC [Mat - Same State NG 3 - JL Mod - D20] (Eterna round: R96, puzzle: Same State NG 3) | 86.5 | 104 | 137 |  |  | 
24 | GCUAGAAUUAAAGCCAACAUGAGGAUCACCCAUGUAUGUUGGCAGGAUAUCGUUUGCUUUGCAAACGAGAAGGGCCAAACUAGC [JL SSNG3 1.01] (Eterna round: R96, puzzle: Same State NG 3) | 20.6 | 76.1 | 120 |  |  | 
25 | GCUAGAAUUAACGCCUACAUGAGGAUCACCCAUGUAUGUAGGCAGGAUAUCGUUUGCUUUGCAAACGAGAAGGGCCUUACUAGC [JL SSNG3 1.11] (Eterna round: R96, puzzle: Same State NG 3) | 22.3 | 53.3 | 42 |  |  | 
26 | GCUAGGAAAUAAGCCAACAUGAGGAUCACCCAUGUAUGUUGGUAGGAUAUCGUAUGCAAAGCAUACGAGAAGGGCUAACCUAGC [Mat - Same State NG 3 - JL Mod - D71] (Eterna round: R96, puzzle: Same State NG 3) | 69.5 | 62.8 | 76 |  |  | 
27 | GCUCGAAUCAAAACCAACAUGAGGAUCACCCAUGUAUGUUGGUAGGAUAUCGUUUGCUUUGCAAACGAGAAGGGCCAAACGAGC [SameState NG3 #3] (Eterna round: R96, puzzle: Same State NG 3) | 69.2 | 121 | 127 |  |  | 
